Laboratory results taken from PMC3152195.

Biological target: GST-fusion protein containing the UBA domain of Dsk2p (residues 328–373) (UniProt P48510)
Experiment: pull-down

Chain of UniProt P48510 (P48510 328-373): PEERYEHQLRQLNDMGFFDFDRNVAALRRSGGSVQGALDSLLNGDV

percent of total cellular GLUT4 pulled down by GST–UBA (taken as ubiquitinated): 0.1%
Substance: endogenous GLUT4 in 3T3-L1 adipocytes (ubiquitinated) (from UniProt P14142 1-509) (natural protein)
